Source: US11504441B2, “Radiolabeled compounds targeting the prostate-specific membrane antigen” (PROVINCIAL HEALTH SERVICES AUTHORITY, priority 2019, dated 2022)

Test: in vivo
Design: species or system mice
Settings: male, NODSCID 1L2RγKO, mouse, iv, total radioactivity

O=C(O)CCC[C@H](NC(=O)N[C@@H](CCCCNC(=O)[C@H](Cc1c2ccccc2cc2ccccc12)NC(=O)[C@H]1CC[C@H](CNC(=O)CN2CCN(CC(=O)O)CCN(CC(=O)O)CCN(CC(=O)O)CC2)CC1)C(=O)O)C(=O)O [177Lu-HTK03149, metal not drawn]
tissue uptake at 1 h (Adrenal glands uptake): 0.35 ± 0.07 %ID/g | tissue uptake at 4 h (Adrenal glands uptake): 0.08 ± 0.01 %ID/g | tissue uptake at 24 h (Adrenal glands uptake): 0.07 ± 0.02 %ID/g | tissue uptake at 72 h (Adrenal glands uptake): 0.12 ± 0.05 %ID/g | tissue uptake at 120 h (Adrenal glands uptake): 0.02 ± 0.03 %ID/g | tissue uptake at 1 h (Blood uptake): 0.88 ± 0.07 %ID/g | tissue uptake at 4 h (Blood uptake): 0.17 ± 0.03 %ID/g | tissue uptake at 24 h (Blood uptake): 0.12 ± 0.01 %ID/g | tissue uptake at 72 h (Blood uptake): 0.07 ± 0.02 %ID/g | tissue uptake at 120 h (Blood uptake): 0.02 ± 0.01 %ID/g | tissue uptake at 1 h (Bone uptake): 0.07 ± 0.02 %ID/g | tissue uptake at 4 h (Bone uptake): 0.02 ± 0.01 %ID/g | tissue uptake at 24 h (Bone uptake): 0.03 %ID/g | tissue uptake at 72 h (Bone uptake): 0.03 ± 0.01 %ID/g | tissue uptake at 120 h (Bone uptake): 0.01 ± 0.01 %ID/g | tissue uptake at 1 h (Brain uptake): 0.02 %ID/g | tissue uptake at 4 h (Brain uptake): 0.01 %ID/g | tissue uptake at 24 h (Brain uptake): 0.01 %ID/g | tissue uptake at 1 h (Fat uptake): 0.14 ± 0.05 %ID/g | tissue uptake at 4 h (Fat uptake): 0.02 %ID/g | tissue uptake at 24 h (Fat uptake): 0.02 %ID/g | tissue uptake at 72 h (Fat uptake): 0.04 ± 0.04 %ID/g | tissue uptake at 120 h (Fat uptake): 0.01 ± 0.01 %ID/g | tissue uptake at 1 h (Heart uptake): 0.28 ± 0.04 %ID/g | tissue uptake at 4 h (Heart uptake): 0.07 ± 0.01 %ID/g | tissue uptake at 24 h (Heart uptake): 0.06 %ID/g | tissue uptake at 72 h (Heart uptake): 0.06 ± 0.01 %ID/g | tissue uptake at 120 h (Heart uptake): 0.03 ± 0.01 %ID/g | tissue uptake at 1 h (Intestine uptake): 0.27 ± 0.06 %ID/g | tissue uptake at 4 h (Intestine uptake): 0.19 ± 0.07 %ID/g | tissue uptake at 24 h (Intestine uptake): 0.09 ± 0.05 %ID/g | tissue uptake at 72 h (Intestine uptake): 0.09 ± 0.03 %ID/g | tissue uptake at 120 h (Intestine uptake): 0.31 ± 0.48 %ID/g | tissue uptake at 1 h (Kidneys uptake): 7.67 ± 1.35 %ID/g | tissue uptake at 4 h (Kidneys uptake): 1.67 ± 0.38 %ID/g | tissue uptake at 24 h (Kidneys uptake): 0.6 ± 0.11 %ID/g | tissue uptake at 72 h (Kidneys uptake): 0.68 ± 0.39 %ID/g | tissue uptake at 120 h (Kidneys uptake): 0.28 ± 0.06 %ID/g | tissue uptake at 1 h (Lacrimal uptake): 0.02 ± 0.01 %ID/g | tissue uptake at 4 h (Lacrimal uptake): 0.03 ± 0.01 %ID/g | tissue uptake at 72 h (Lacrimal uptake): 0.01 ± 0.01 %ID/g | tissue uptake at 1 h (Liver uptake): 0.26 ± 0.03 %ID/g | tissue uptake at 4 h (Liver uptake): 0.11 ± 0.01 %ID/g | tissue uptake at 24 h (Liver uptake): 0.1 ± 0.01 %ID/g | tissue uptake at 72 h (Liver uptake): 0.13 ± 0.03 %ID/g | tissue uptake at 120 h (Liver uptake): 0.08 ± 0.04 %ID/g | tissue uptake at 1 h (Lungs uptake): 0.72 ± 0.06 %ID/g | tissue uptake at 4 h (Lungs uptake): 0.17 ± 0.01 %ID/g | tissue uptake at 24 h (Lungs uptake): 0.12 ± 0.01 %ID/g | tissue uptake at 72 h (Lungs uptake): 0.11 ± 0.02 %ID/g | tissue uptake at 120 h (Lungs uptake): 0.09 ± 0.08 %ID/g | tissue uptake at 1 h (Muscle uptake): 0.18 ± 0.14 %ID/g | tissue uptake at 4 h (Muscle uptake): 0.02 ± 0.01 %ID/g | tissue uptake at 24 h (Muscle uptake): 0.02 %ID/g | tissue uptake at 72 h (Muscle uptake): 0.02 %ID/g | tissue uptake at 120 h (Muscle uptake): 0.01 %ID/g | tissue uptake at 1 h (Pancreas uptake): 0.17 ± 0.03 %ID/g | tissue uptake at 4 h (Pancreas uptake): 0.03 %ID/g | tissue uptake at 24 h (Pancreas uptake): 0.03 %ID/g | tissue uptake at 72 h (Pancreas uptake): 0.03 %ID/g | tissue uptake at 120 h (Pancreas uptake): 0.02 ± 0.01 %ID/g | tissue uptake at 1 h (Salivary uptake): 0.23 ± 0.06 %ID/g | tissue uptake at 4 h (Salivary uptake): 0.05 ± 0.01 %ID/g | tissue uptake at 24 h (Salivary uptake): 0.05 ± 0.01 %ID/g | tissue uptake at 72 h (Salivary uptake): 0.05 ± 0.02 %ID/g | tissue uptake at 120 h (Salivary uptake): 0.03 ± 0.01 %ID/g | tissue uptake at 1 h (Seminal uptake): 0.38 ± 0.47 %ID/g | tissue uptake at 4 h (Seminal uptake): 0.04 ± 0.03 %ID/g | tissue uptake at 24 h (Seminal uptake): 0.02 %ID/g | tissue uptake at 72 h (Seminal uptake): 0.03 ± 0.01 %ID/g | tissue uptake at 120 h (Seminal uptake): 0.01 %ID/g | tissue uptake at 1 h (Spleen uptake): 0.26 ± 0.05 %ID/g | tissue uptake at 4 h (Spleen uptake): 0.09 ± 0.02 %ID/g | tissue uptake at 24 h (Spleen uptake): 0.09 ± 0.01 %ID/g | tissue uptake at 72 h (Spleen uptake): 0.14 ± 0.06 %ID/g | tissue uptake at 120 h (Spleen uptake): 0.13 ± 0.08 %ID/g | tissue uptake at 1 h (Stomach uptake): 0.1 ± 0.02 %ID/g | tissue uptake at 4 h (Stomach uptake): 0.05 ± 0.02 %ID/g | tissue uptake at 24 h (Stomach uptake): 0.13 ± 0.11 %ID/g | tissue uptake at 72 h (Stomach uptake): 0.14 ± 0.1 %ID/g | tissue uptake at 120 h (Stomach uptake): 0.24 ± 0.31 %ID/g | tissue uptake at 1 h (Tail uptake): 0.52 ± 0.13 %ID/g | tissue uptake at 4 h (Tail uptake): 0.2 ± 0.14 %ID/g | tissue uptake at 24 h (Tail uptake): 0.14 ± 0.14 %ID/g | tissue uptake at 72 h (Tail uptake): 0.08 ± 0.02 %ID/g | tissue uptake at 120 h (Tail uptake): 0.04 ± 0.01 %ID/g | tissue uptake at 1 h (Testes uptake): 0.26 ± 0.02 %ID/g | tissue uptake at 4 h (Testes uptake): 0.06 %ID/g | tissue uptake at 24 h (Testes uptake): 0.05 %ID/g | tissue uptake at 72 h (Testes uptake): 0.05 ± 0.01 %ID/g | tissue uptake at 120 h (Testes uptake): 0.03 ± 0.01 %ID/g | tissue uptake at 1 h (Thyroid uptake): 0.27 ± 0.02 %ID/g | tissue uptake at 4 h (Thyroid uptake): 0.07 ± 0.01 %ID/g | tissue uptake at 24 h (Thyroid uptake): 0.06 %ID/g | tissue uptake at 72 h (Thyroid uptake): 0.08 ± 0.01 %ID/g | tissue uptake at 120 h (Thyroid uptake): 0.04 ± 0.01 %ID/g | tissue uptake at 1 h (Tumor uptake): 14 ± 2.16 %ID/g | tissue uptake at 4 h (Tumor uptake): 20.9 ± 2.99 %ID/g | tissue uptake at 24 h (Tumor uptake): 13.8 ± 2.88 %ID/g | tissue uptake at 72 h (Tumor uptake): 17.1 ± 4.7 %ID/g | tissue uptake at 120 h (Tumor uptake): 16.4 ± 11 %ID/g
